Values quoted from earlier work, collected in patent publication US20250101104A1, “BISPECIFIC MOLECULE WITH TUNABLE AFFINITY TO A TARGETED ANTIGEN” (MABSWITCH INC., priority 2022, published 2025).

System: AML cell lines and primary AML blasts
Settings: in vitro and in NOD SCID mice injected with human AML

B1: MGDO06: CD3×CD123 DART (Macrogenics) (antibody, chains of the INN, looked up, V domains shown)
VH: EVQLVQSGAELKKPGASVKVSCKASGYTFTDYYMKWVRQAPGQGLEWIGDIIPSNGATFYNQKFKGRVTITVDKSTSTAYMELSSLRSEDTAVYYCARSHLLRASWFAYWGQGTLVTVSS
VL: DFVMTQSPDSLAVSLGERVTMSCKSSQSLLNSGNQKNYLTWYQQKPGQPPKLLIYWASTRESGVPDRFSGSGSGTDFTLTISSLQAEDVAVYYCQNDYSYPYTFGQGTKLEIK
VH2: EVQLVESGGGLVQPGGSLRLSCAASGFTFSTYAMNWVRQAPGKGLEWVGRIRSKYNNYATYYADSVKDRFTISRDDSKNSLYLQMNSLKTEDTAVYYCVRHGNFGNSYVSWFAYWGQGTLVTVSS
VL2: QAVVTQEPSLTVSPGGTVTLTCRSSTGAVTTSNYANWVQQKPGQAPRGLIGGTNKRAPWTPARFSGSLLGGKAALTITGAQAEDEADYYCALWYSNLWVFGGGTKLTVL
modifications: DART
  killing of AML cell lines and primary AML blasts: dose-dependent killing
